Laboratory results as given in US11906524B2, “Urea biosensors and uses thereof” (Duke University, priority 2015, dated 2024).
Positions count from the first letter of the chain named. In names and notes the source's numbering stands. Where two headings read alike, the source gives them in different places.

Assays:
[1] = Temperature- and urea-dependent fluorescence landscapes of fluorescent conjugates (Roche LightCycler); type: binding; design: key: y, yes; n, no; conditions: fluorescent response to urea
Procedure: We constructed 20 single cysteine mutants in csUBP7, exploring 7 endosteric, 12 peristeric, and 1 allosteric position (FIG. 9). At each position we attached the Prodan-derived fluorophores Acrylodan and Badan, which differ by one methylene group in their thiol-reactive linker. The fluorescent responses of these conjugates was determined initially as a function of urea concentration and temperature (FIG. 10). […] The ligand dependence of the emission spectra shapes was determined for these conjugates (Table 8).
Determination of temperature- and ligand-dependent fluorescence landscapes. […] Urea concentrations were varied from 0-4.8 M in 20 mM KCl, 20 mM MOPS (pH 7.4). […] Temperatures were advanced in 1K steps.
(§1) Ratiometric analysis of urea binding. […] 2
(§2) For a single urea-binding site, the fractional saturation is given by
(§3) [formula] where [L] is the ligand (urea) concentration and Kd the dissociation constant, ^trueKd for ytrue.
To obtain the temperature dependence of the binding reaction, the Kd values of all the individually determined isotherms were fit the Gibbs-Hemholtz equation (Layton and Hellinga, 2010, Biochemistry, 49, 10831-41):
[formula] where ΔGb^•(T) is the standard free energy of binding at 1 M ligand at temperature T,
[formula] Δ^refHb^• and Δ^refSb^• the molar enthalpy and entropy of binding, respectively, at the reference temperature, Tref, and ΔCp,b the heat capacity of the binding reaction.

[2] = Urea titration of emission intensity spectra (Nanodrop3300) with ratiometric analysis, singly labeled conjugates; type: binding; design: key to Acrylodan Intensity / Badan Intensity: +, increases in response to urea; −, decreases; 0, no change; key to Badan Dipoles / Acrylodan Dipoles: blue, (maxima <500 nm); g, green (maxima >500 nm); b/g, mixed population; key to Acrylodan Shape / Badan Shape: m, monochromatic; d, dichromatic (i.e. spectral shape changes); 0, no change; conditions: for Acrylodan Intensity / Badan Intensity: emission intensity change on urea; for Acrylodan Shape / Badan Shape: emission spectrum shape change on urea; for Acrylodan Dipoles / Badan Dipoles: estimated change in populations of major emission bands; for Kd: urea
Source text: Determination of emission intensity spectra.
as §1, §2, §3
[formula] where ^appIλ2 and ^satIλ2 are the emission intensities of the monochromatic signal at wavelength λ2 of the ligand-free and ligand-bound protein, respectively.

[3] = csUBP7 Acrylodan conjugate, read-out: Acrylodan ^trueKd
[4] = csUBP7 Badan conjugate, read-out: Badan ^trueKd

B1: csUBP7 R95C: csUBP7 95C cysteine mutant (SEQ ID NO: 32), tested as Acrylodan and Badan conjugates (conjugate)
chain: MSSSESEKEKSEETIKVGILHSLSGTMSISEVSLKDAELMAIEEINNNGGVLGKKLEPIVEDGASDWPTFAEKAKKLLQKDKVAVIFGAWTSASCKAVLPVVEENNGLLFYPVQYEGLESSPNIFYMGAAPNQQIVPAVKWLFDNGKKRFYLLGSDYVFPRTANKIIKAYLKYLGGVVVGEEYTPLGHTDYSSVINKIKAAKPDVVFNTLNGDSNVAFFKQLKDAGIDANTLPVMSVSIAEEEIKGIGPEYLKGHLVTWNYFQSVDTPENKEFVEKYKKKYGEDRVTDDPIEAAYIGVYLWAKAVEKAGSTDVDKVREAAKGIEFNAPEGPVKIDGDNQHLYKTVRIGEILENGQIRELWKTNKPVKPDPYLKGYEWAQGLSEQGGSHHHHHH
modifications: Acrylodan or Badan conjugate; csUBP7_95C (95C substitution mutant with signal peptide replaced with M and a GGSHHHHHH at C-terminus, and also comprising a C89A substitution)
With B1 the Response ([1]; Acrylodan conjugate) was “y”, the Response ([1]; Badan conjugate) was “y” and the “ratiometric response to urea” value ([2]; Acrylodan and Badan conjugates screened) was “good ratiometric responses”. For the same molecule, the “Acrylodan Intensity” value ([2]; csUBP7 Acrylodan conjugate) was “−”, the “Acrylodan Shape” value ([2]; csUBP7 Acrylodan conjugate) was “m” and the “Acrylodan Dipoles” value ([2]; csUBP7 Acrylodan conjugate) was “b (blue, (maxima <500 nm))”. The Kd [2, 3] was 0.3 mM, the “Badan Intensity” value ([2]; csUBP7 Badan conjugate) was “+” and the “Badan Shape” value ([2]; csUBP7 Badan conjugate) was “d”. For the same molecule, the “Badan Dipoles” value ([2]; csUBP7 Badan conjugate) was “g→b” and the Kd [2, 4] was 2.2 mM.

B2: csUBP7 T69C: csUBP7 69C cysteine mutant (SEQ ID NO: 27), tested as Acrylodan and Badan conjugates (conjugate)
chain: B1 chain with T69C, C95R
modifications: Acrylodan or Badan conjugate; csUBP7_69C (69C substitution mutant with signal peptide replaced with M and a GGSHHHHHH at C-terminus, and also comprising a C89A substitution)
With B2 the Response ([1]; Acrylodan conjugate) was “n”, the Response ([1]; Badan conjugate) was “y” and the “Acrylodan Shape” value ([2]; csUBP7 Acrylodan conjugate) was 0. The “Acrylodan Dipoles” value ([2]; csUBP7 Acrylodan conjugate) was “g (g, green (maxima >500 nm))”, the “Badan Intensity” value ([2]; csUBP7 Badan conjugate) was “−” and the “Badan Shape” value ([2]; csUBP7 Badan conjugate) was “d”. For the same molecule, the “Badan Dipoles” value ([2]; csUBP7 Badan conjugate) was “g→b/g” and the Kd [2, 4] was 0.007 mM.

B3: csUBP7 E116C: csUBP7 116C cysteine mutant (SEQ ID NO: 36), tested as Acrylodan and Badan conjugates (conjugate)
chain: B1 chain with C95R, E116C
modifications: Acrylodan or Badan conjugate; csUBP7_116C (116C substitution mutant with signal peptide replaced with M and a GGSHHHHHH at C-terminus, and also comprising a C89A substitution)
In the case of B3, the Response ([1]; Acrylodan conjugate) is reported as “y”, the Response ([1]; Badan conjugate) is reported as “y” and the “Acrylodan Intensity” value ([2]; csUBP7 Acrylodan conjugate) is reported as “+”. For the same molecule, the “Acrylodan Shape” value ([2]; csUBP7 Acrylodan conjugate) was “d”, the “Acrylodan Dipoles” value ([2]; csUBP7 Acrylodan conjugate) was “b/g→g” and the Kd [2, 3] was 29 mM. The “Badan Intensity” value ([2]; csUBP7 Badan conjugate) was “−”, the “Badan Shape” value ([2]; csUBP7 Badan conjugate) was “m” and the “Badan Dipoles” value ([2]; csUBP7 Badan conjugate) was “b/g”. It also gave a Kd [2, 4] of 10 mM.

B4: csUBP7 T26C: csUBP7 26C cysteine mutant (SEQ ID NO: 23), tested as Acrylodan and Badan conjugates (conjugate)
chain: B1 chain with T26C, C95R
modifications: Acrylodan or Badan conjugate; csUBP7_26C (26C substitution mutant with signal peptide replaced with M and a GGSHHHHHH at C-terminus, and also comprising a C89A substitution)
In the case of B4, the Response ([1]; Acrylodan conjugate) is reported as “y”, the Response ([1]; Badan conjugate) is reported as “y” and the “Acrylodan Intensity” value ([2]; csUBP7 Acrylodan conjugate) is reported as “−”. The “Acrylodan Shape” value ([2]; csUBP7 Acrylodan conjugate) was “d”, the “Acrylodan Dipoles” value ([2]; csUBP7 Acrylodan conjugate) was “b→g” and the Kd [2, 3] was 0.09 mM. For the same molecule, the “Badan Intensity” value ([2]; csUBP7 Badan conjugate) was “−”, the “Badan Shape” value ([2]; csUBP7 Badan conjugate) was “m” and the “Badan Dipoles” value ([2]; csUBP7 Badan conjugate) was “b/g”. For the same molecule, the Kd [2, 4] was 0.3 mM.

B5: csUBP7 T91C: csUBP7 91C cysteine mutant (SEQ ID NO: 29), tested as Acrylodan and Badan conjugates (conjugate)
chain: B1 chain with T91C, C95R
modifications: Acrylodan or Badan conjugate; csUBP7_91C (91C substitution mutant with signal peptide replaced with M and a GGSHHHHHH at C-terminus, and also comprising a C89A substitution)
With B5 the Response ([1]; Acrylodan conjugate) was “n”, the Response ([1]; Badan conjugate) was “y” and the “Acrylodan Intensity” value ([2]; csUBP7 Acrylodan conjugate) was “−”. For the same molecule, the “Acrylodan Shape” value ([2]; csUBP7 Acrylodan conjugate) was “m”, the “Acrylodan Dipoles” value ([2]; csUBP7 Acrylodan conjugate) was “b/g” and the Kd [2, 3] was 0.7 mM. The “Badan Intensity” value ([2]; csUBP7 Badan conjugate) was “−”, the “Badan Shape” value ([2]; csUBP7 Badan conjugate) was “d” and the “Badan Dipoles” value ([2]; csUBP7 Badan conjugate) was “b/g→b”. For the same molecule, the Kd [2, 4] was 0.6 mM.

B6: csUBP7 W90C: csUBP7 90C cysteine mutant (SEQ ID NO: 28), tested as Acrylodan and Badan conjugates (conjugate)
chain: B1 chain with W90C, C95R
modifications: Acrylodan or Badan conjugate; csUBP7_90C (90C substitution mutant with signal peptide replaced with M and a GGSHHHHHH at C-terminus, and also comprising a C89A substitution)
For B6, the Response ([1]; Acrylodan conjugate) was “y”, the Response ([1]; Badan conjugate) was “y” and the “Acrylodan Intensity” value ([2]; csUBP7 Acrylodan conjugate) was “+”. The “Acrylodan Shape” value ([2]; csUBP7 Acrylodan conjugate) was “d”, the “Acrylodan Dipoles” value ([2]; csUBP7 Acrylodan conjugate) was “b/g→b” and the Kd [2, 3] was 7.1 mM. For the same molecule, the “Badan Intensity” value ([2]; csUBP7 Badan conjugate) was “+”, the “Badan Shape” value ([2]; csUBP7 Badan conjugate) was “m” and the “Badan Dipoles” value ([2]; csUBP7 Badan conjugate) was “b/g”. For the same molecule, the Kd [2, 4] was 8.5 mM.

B7: csUBP7 M27C: csUBP7 27C cysteine mutant (SEQ ID NO: 24), tested as Acrylodan and Badan conjugates (conjugate)
chain: B1 chain with M27C, C95R
modifications: Acrylodan or Badan conjugate; csUBP7_27C (27C substitution mutant with signal peptide replaced with M and a GGSHHHHHH at C-terminus, and also comprising a C89A substitution)
For B7, the Response ([1]; Acrylodan conjugate) was “y”, the Response ([1]; Badan conjugate) was “y” and the “Acrylodan Intensity” value ([2]; csUBP7 Acrylodan conjugate) was “+”. The “Acrylodan Shape” value ([2]; csUBP7 Acrylodan conjugate) was “m”, the “Acrylodan Dipoles” value ([2]; csUBP7 Acrylodan conjugate) was “g (g, green (maxima >500 nm))” and the Kd [2, 3] was 4.6 mM. The “Badan Intensity” value ([2]; csUBP7 Badan conjugate) was “−”, the “Badan Shape” value ([2]; csUBP7 Badan conjugate) was “d” and the “Badan Dipoles” value ([2]; csUBP7 Badan conjugate) was “g→b/g”. The Kd [2, 4] was 3.2 mM.

B8: csUBP7 S30C: csUBP7 30C cysteine mutant (SEQ ID NO: 25), tested as Acrylodan and Badan conjugates (conjugate)
chain: B1 chain with S30C, C95R
modifications: Acrylodan or Badan conjugate; csUBP7_30C (30C substitution mutant with signal peptide replaced with M and a GGSHHHHHH at C-terminus, and also comprising a C89A substitution)
For B8, the Response ([1]; Acrylodan conjugate) was “y”, the Response ([1]; Badan conjugate) was “y” and the “Acrylodan Intensity” value ([2]; csUBP7 Acrylodan conjugate) was “+”. For the same molecule, the “Acrylodan Shape” value ([2]; csUBP7 Acrylodan conjugate) was “d”, the “Acrylodan Dipoles” value ([2]; csUBP7 Acrylodan conjugate) was “b/g→b” and the Kd [2, 3] was 5.2 mM. For the same molecule, the “Badan Intensity” value ([2]; csUBP7 Badan conjugate) was “+”, the “Badan Shape” value ([2]; csUBP7 Badan conjugate) was “d” and the “Badan Dipoles” value ([2]; csUBP7 Badan conjugate) was “g→b”. The Kd [2, 4] was 0.3 mM.
